The nature of the data set: self-splicing fitness, log relative to wild type (ln ratio); higher = more splicing; Tetrahymena group I intron in knt gene, E. coli kanamycin selection, DiMSum; sequences stand for … in CUCUCU…GGAGGGAAAAGUUAUCAGGCAUGCACCUGGUAGCUAGUCUUUAAACCAAUAGAUUGCAUCGGUUUAAAAGGCAAGACCGUCAAAUUGCGGGAAAGGGGUCAACAGCCGUUCAGUACCAAGUCUCAGGGGAAACUUUGAGAUGGCCUUGCAAAGGGUAUGGUAAUAAGCUGACGGACAUGGUCCUAACCACGCAGCCAAGUCCUAAGUCAACAGAUCUUCUGUUGAUAUGGAUGCAGUUCACAGACUAAAUGUCGGUCGGGGAAGAUGUAUUCUUCUCAUAAGAUAUAGUCGGACCUCUCCUUAAUGGGAGCUAGCGGAUGAAGUGAUGCAACACUGGAGCCGCUGGGAACUAAUUUGUAUGCGAAAGUAUAUUGAUUAGUUUUGGAGUACUCGUGGUCG
Summed up: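 Six replicate transformations of E. coli BL21(DE3) with a pET-22b(+) library were grown overnight at 37°C or 30°C. The library randomised all eight P1ex-region intron nucleotides, the intron lying in the knt kanamycin-resistance gene, and plates were LB agar with or without 25 μg/mL kanamycin plus 100 μg/mL carbenicillin, 50 μM IPTG and 0.2% rhamnose. Pooled colonies were amplicon-sequenced on an Illumina HiSeq 2500, and fitness is the DiMSum error-weighted combination of wild-type-normalised replicate fold changes, kanamycin versus none.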

± gives the uncertainty stated by the source.

Take AAUUAGCAAUAUUACGAGUA: the “self-splicing fitness (ln)” value by setting is: (30 °C) -1.86 ± 0.24; (37 °C) -1.16 ± 0.18.
For AAUUAGCAAUAUUACGAUCG, the “self-splicing fitness (ln)” value (30 °C) is -0.473 ± 0.13 and the “self-splicing fitness (ln)” value (37 °C) came out at 0.0147 ± 0.16.
The corresponding values for AAUUAGCAAUAUUACGAUGC are -1.25 ± 0.15 and -0.872 ± 0.18.
The corresponding values for AAUUAGCAAUAUUACGAUUC are -2.85 ± 0.24 and -1.13 ± 0.34.
The corresponding values for AAUUAGCAAUAUUACGCAAG are -0.991 ± 0.13 and -1.4 ± 0.19.
In the case of AAUUAGCAAUAUUACGCACG, the “self-splicing fitness (ln)” value was -2.18 ± 0.2 (30 °C) and -0.641 ± 0.17 (37 °C).
The corresponding values for AAUUAGCAAUAUUACGCCUG are -0.979 ± 0.14 and -0.733 ± 0.21.
The corresponding values for AAUUAGCAAUAUUACGCCUU are -0.243 ± 0.11 and -0.0919 ± 0.12.
Taken in the same sequence, the figures for AAUUAGCAAUAUUACGCGAA were -1.34 ± 0.15 and -1.89 ± 0.25.
As for AAUUAGCAAUAUUACGCGAU, the “self-splicing fitness (ln)” value runs as follows: (30 °C) -3.62 ± 0.32; (37 °C) -2.31 ± 0.23.
Taken in the same sequence, the figures for AAUUAGCAAUAUUACGCGGU were -3.63 ± 0.21 and -1.55 ± 0.21.
Taken in the same sequence, the figures for AAUUAGCAAUAUUACGCUCA were -0.656 ± 0.12 and -0.204 ± 0.16.
The corresponding values for AAUUAGCAAUAUUACGGAGA are -3.3 ± 0.45 and -1.98 ± 0.36.
AAUUAGCAAUAUUACGGCAG: the “self-splicing fitness (ln)” value was -0.691 ± 0.11 (30 °C) and -0.322 ± 0.1 (37 °C).
The corresponding values for AAUUAGCAAUAUUACGGCGG are -1.81 ± 0.11 and -0.193 ± 0.13.
For AAUUAGCAAUAUUACGGCUG, the “self-splicing fitness (ln)” value is, setting by setting: (30 °C) -0.324 ± 0.082; (37 °C) 0.339 ± 0.12.
Regarding AAUUAGCAAUAUUACGGGGA, the “self-splicing fitness (ln)” value is -2.98 ± 0.27 (30 °C) and -2.07 ± 0.26 (37 °C).
The corresponding values for AAUUAGCAAUAUUACGGUCC are -0.652 ± 0.12 and 0.122 ± 0.15.
In the case of AAUUAGCAAUAUUACGUAGG, the “self-splicing fitness (ln)” value was -2.69 ± 0.12 (30 °C) and -1.96 ± 0.18 (37 °C).
AAUUAGCAAUAUUACGUAUA: the “self-splicing fitness (ln)” value is -1.83 ± 0.28 (30 °C) and -1.32 ± 0.38 (37 °C).
Taken in the same sequence, the figures for AAUUAGCAAUAUUACGUGGA were -3.12 ± 0.2 and -2.27 ± 0.17.
In the case of AAUUAGCAAUAUUACGUGGC, the “self-splicing fitness (ln)” value is, setting by setting: (30 °C) -3.39 ± 0.2; (37 °C) -1.96 ± 0.24.
On to AAUUAGCAAUAUUACGUGUG, for which the “self-splicing fitness (ln)” value was -2.11 ± 0.11 (30 °C) and -0.784 ± 0.096 (37 °C).
ACAAAGCAAUAUUACGACGA: the “self-splicing fitness (ln)” value runs as follows: (30 °C) -0.436 ± 0.063; (37 °C) -0.207 ± 0.062.
On to ACAAAGCAAUAUUACGAUAA, for which the “self-splicing fitness (ln)” value by setting is: (30 °C) -1.38 ± 0.086; (37 °C) -1 ± 0.1.
The corresponding values for ACAAAGCAAUAUUACGAUGG are -1.44 ± 0.08 and -0.402 ± 0.1.
Taken in the same sequence, the figures for ACAAAGCAAUAUUACGCAGG were -1.47 ± 0.064 and -1.21 ± 0.08.
Take ACAAAGCAAUAUUACGCCAG: the “self-splicing fitness (ln)” value runs as follows: (30 °C) -1.94 ± 0.13; (37 °C) -1.11 ± 0.16.
Taken in the same sequence, the figures for ACAAAGCAAUAUUACGCCGG were -0.52 ± 0.065 and -0.282 ± 0.083.
As for ACAAAGCAAUAUUACGCUUG, the “self-splicing fitness (ln)” value by setting is: (30 °C) -1.62 ± 0.057; (37 °C) -0.984 ± 0.079.
On to ACAAAGCAAUAUUACGGACA, for which the “self-splicing fitness (ln)” value (30 °C) was -1.29 ± 0.13 and the “self-splicing fitness (ln)” value (37 °C) was -0.782 ± 0.11.
Regarding ACAAAGCAAUAUUACGGACG, the “self-splicing fitness (ln)” value (30 °C) was -0.851 ± 0.045 and the “self-splicing fitness (ln)” value (37 °C) was -0.124 ± 0.065.
In the case of ACAAAGCAAUAUUACGGGUU, the “self-splicing fitness (ln)” value reads like this: (30 °C) -2.54 ± 0.087; (37 °C) -1.23 ± 0.09.
Taken in the same sequence, the figures for ACAAAGCAAUAUUACGGUAC were -3.33 ± 0.13 and -2.3 ± 0.15.
The corresponding values for ACAAAGCAAUAUUACGGUAU are -3.56 ± 0.13 and -1.35 ± 0.099.
Taken in the same sequence, the figures for ACAAAGCAAUAUUACGGUCG were -1.24 ± 0.055 and -0.228 ± 0.08.
As for ACAAAGCAAUAUUACGGUGU, the “self-splicing fitness (ln)” value was -3.29 ± 0.14 (30 °C) and -2.81 ± 0.15 (37 °C).

(Values after the supplement of paper PMC7877785.)
